From PMC3229523, “Identification of Lactoferricin B Intracellular Targets Using an Escherichia coli Proteome Chip” (PLoS ONE, 2011)
Ends that are not written are not given here. * marks the point of attachment. Biotin = O=C1N[C@H]2[C@H](CS[C@H]2CCCCC(=O)*)N1

Key:
Experiment in all cases: peptide or protein array; E. coli proteome chip: purified His-tagged proteins printed in duplicate on Fullmoon slides, blocked with 1% BSA; 10 nM N-terminal biotinylated LfcinB with 1% BSA, room temperature, 1 h; detected with DyLight 649-labeled streptavidin, ratio to DyLight 549-labeled anti-His antibody; ProCAT normalisation, local cut-off; triplicate chips
Conditions in all cases: both partners purified
RhaD = molecular target: T1, RhaD (E. coli K-12, UniProt P32169 1-274)
T1 construct: RhaD, E. coli K-12
T1 sequence (looked up): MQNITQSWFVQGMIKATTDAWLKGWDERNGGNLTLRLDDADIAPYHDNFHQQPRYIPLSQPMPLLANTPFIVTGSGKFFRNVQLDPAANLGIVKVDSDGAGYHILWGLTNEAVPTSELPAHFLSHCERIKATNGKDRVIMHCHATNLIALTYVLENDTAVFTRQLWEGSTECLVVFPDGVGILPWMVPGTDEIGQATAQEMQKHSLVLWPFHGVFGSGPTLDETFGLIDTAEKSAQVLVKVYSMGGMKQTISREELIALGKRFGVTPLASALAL

GlpK = molecular target: T2, GlpK (E. coli K-12, UniProt P0A6F3 1-502)
T2 construct: GlpK, E. coli K-12
T2 sequence (P0A6F3 whole entry): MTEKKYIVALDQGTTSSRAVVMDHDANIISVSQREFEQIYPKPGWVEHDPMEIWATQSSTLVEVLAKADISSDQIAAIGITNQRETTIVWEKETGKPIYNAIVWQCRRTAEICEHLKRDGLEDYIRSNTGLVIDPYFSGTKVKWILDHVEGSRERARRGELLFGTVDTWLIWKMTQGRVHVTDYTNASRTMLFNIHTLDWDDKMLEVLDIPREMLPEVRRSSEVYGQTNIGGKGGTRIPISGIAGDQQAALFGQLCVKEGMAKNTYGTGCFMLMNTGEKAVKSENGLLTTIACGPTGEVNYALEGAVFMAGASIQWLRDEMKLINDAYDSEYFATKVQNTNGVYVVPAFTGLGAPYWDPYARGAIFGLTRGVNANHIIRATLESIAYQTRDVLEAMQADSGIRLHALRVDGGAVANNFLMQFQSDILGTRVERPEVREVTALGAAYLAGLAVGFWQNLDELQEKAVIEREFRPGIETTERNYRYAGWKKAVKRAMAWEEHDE

YibA = molecular target: T3, YibA (E. coli K-12, UniProt P0ADK6 1-280)
T3 construct: YibA, E. coli K-12
T3 sequence (looked up): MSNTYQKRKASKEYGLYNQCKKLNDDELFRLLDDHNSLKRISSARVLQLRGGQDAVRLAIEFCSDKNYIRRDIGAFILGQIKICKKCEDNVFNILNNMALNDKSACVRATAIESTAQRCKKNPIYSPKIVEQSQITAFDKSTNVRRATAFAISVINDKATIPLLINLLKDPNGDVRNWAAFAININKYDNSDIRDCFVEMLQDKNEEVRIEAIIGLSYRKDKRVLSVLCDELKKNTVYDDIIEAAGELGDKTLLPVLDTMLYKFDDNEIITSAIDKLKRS

YbaO = molecular target: T4, YbaO (E. coli K-12, UniProt P0ACJ5 1-152)
T4 construct: YbaO, E. coli K-12
T4 sequence (looked up): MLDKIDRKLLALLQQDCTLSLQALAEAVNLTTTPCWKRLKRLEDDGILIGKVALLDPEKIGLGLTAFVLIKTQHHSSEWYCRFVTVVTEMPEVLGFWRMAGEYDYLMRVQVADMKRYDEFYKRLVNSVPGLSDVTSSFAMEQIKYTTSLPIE

YefE = molecular target: T5, YefE (E. coli K-12, UniProt P37747 1-367)
T5 construct: YefE, E. coli K-12
T5 sequence (looked up): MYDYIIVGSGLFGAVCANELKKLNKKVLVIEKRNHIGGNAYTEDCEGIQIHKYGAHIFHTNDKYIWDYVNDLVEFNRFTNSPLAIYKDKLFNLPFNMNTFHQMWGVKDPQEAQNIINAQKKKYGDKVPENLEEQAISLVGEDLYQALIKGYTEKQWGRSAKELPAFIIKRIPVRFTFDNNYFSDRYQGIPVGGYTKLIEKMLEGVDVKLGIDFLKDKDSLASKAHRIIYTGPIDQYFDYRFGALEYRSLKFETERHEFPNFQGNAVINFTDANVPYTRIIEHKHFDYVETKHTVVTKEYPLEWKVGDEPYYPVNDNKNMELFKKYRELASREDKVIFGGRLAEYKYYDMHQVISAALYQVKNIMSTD

YbgE = molecular target: T6, YbgE (E. coli K-12, UniProt P0AAV0 1-97)
T6 construct: YbgE, E. coli K-12
T6 sequence (looked up): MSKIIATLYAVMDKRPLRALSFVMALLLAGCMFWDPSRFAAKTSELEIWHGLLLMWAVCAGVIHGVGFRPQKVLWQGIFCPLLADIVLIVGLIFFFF

YjiL = molecular target: T7, YjiL (E. coli K-12, UniProt P39383 1-255)
T7 construct: YjiL, E. coli K-12
T7 sequence (looked up): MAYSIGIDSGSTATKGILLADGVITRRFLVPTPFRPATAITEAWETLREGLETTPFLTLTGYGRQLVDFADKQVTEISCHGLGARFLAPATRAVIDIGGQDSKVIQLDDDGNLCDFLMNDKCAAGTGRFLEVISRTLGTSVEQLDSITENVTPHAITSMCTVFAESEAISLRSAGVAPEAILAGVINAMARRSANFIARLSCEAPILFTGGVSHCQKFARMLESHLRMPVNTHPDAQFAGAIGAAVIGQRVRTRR

Measured: binding result

B1: N-terminal biotinylated Lactoferricin B (peptide, UniProt P24627 36-60, looked up)
peptide: Biotin-FKCRRWQWRMKKLGAPSITCVRRAF
modifications: ends and bridges not checked
notes: lactoferricin B (LfcinB), cationic antimicrobial peptide of 25 amino acids; also called biotinylated LfcinB; biotin-labeled LfcinB; source: bought: Kelowna Inc
binds: all assays above
